# Assay results: patent US7183387 (Genentech, dated 2007)
# T1: human FcγRIIA-Arg131 α subunit extracellular domain-His6-GST fusion (human, UniProt P12318 34-217)
# T1 construct: extracellular domain; also called FcγRIIA-R131; not shown: glutathione S transferase (GST)
# T1 sequence: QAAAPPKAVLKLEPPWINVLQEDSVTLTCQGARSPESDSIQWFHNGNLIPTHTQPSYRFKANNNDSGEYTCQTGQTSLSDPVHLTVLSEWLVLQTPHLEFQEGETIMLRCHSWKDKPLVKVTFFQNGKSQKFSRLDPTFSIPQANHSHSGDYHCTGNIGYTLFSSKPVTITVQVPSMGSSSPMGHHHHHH
# T2: human FcγRIIB α subunit extracellular domain-His6-GST fusion (human, UniProt P31994 43-217)
# T2 construct: extracellular domain; also called CD32; not shown: glutathione S transferase (GST)
# T2 sequence: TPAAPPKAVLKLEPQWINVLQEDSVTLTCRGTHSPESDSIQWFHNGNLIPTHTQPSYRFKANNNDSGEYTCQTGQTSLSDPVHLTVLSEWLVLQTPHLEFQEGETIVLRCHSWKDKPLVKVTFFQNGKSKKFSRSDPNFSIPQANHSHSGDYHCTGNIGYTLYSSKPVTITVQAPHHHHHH
# T3: human FcγRIIA-R131 α subunit extracellular domain-His6-GST fusion (human, UniProt P12318 34-217)
# T3 construct: ECD-6His-GST fusion made in 293 cells; also called FcγRIIA-Arg131; not shown: glutathione S transferase (GST)
# T3 sequence: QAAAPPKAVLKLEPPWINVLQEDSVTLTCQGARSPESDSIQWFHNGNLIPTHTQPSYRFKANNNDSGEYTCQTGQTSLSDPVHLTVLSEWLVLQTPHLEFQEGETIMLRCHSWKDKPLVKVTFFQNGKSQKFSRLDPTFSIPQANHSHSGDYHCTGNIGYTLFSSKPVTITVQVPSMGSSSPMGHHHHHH
# What was measured:
# [1] = molecular target: T4, human FcγRIA α subunit extracellular domain-His6-GST fusion (human, UniProt P12314 16-292); test: FcγRI ELISA and THP-1 cells, averaged
# T4 construct: extracellular domain; also called GST-FcγRIA; CD64; not shown: glutathione S transferase (GST)
# [2] = molecular target: T5, human neonatal Fc receptor (FcRn), biotinylated (human, UniProt P55899 24-297; P61769 21-119, biotinylated (biotin-X-NHS)); test: FcRn ELISA, pH 6.0;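 further: Streptavidin-captured FcRn plates, IgG variants titrated 2 h at pH 6.0, peroxidase anti-human IgG read at 450 nm, variant over standard concentration at the standard curve mid-point absorbance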
# T5 construct: captured on streptavidin plates
# [3] = molecular target: T1, human FcγRIIA-Arg131 α subunit …; test: hexamer ELISA
# [4] = molecular target: T2, human FcγRIIB α subunit extracellular …; test: hexamer ELISA
# [5] = molecular target: T6, human FcγRIIIA-Phe158 α subunit extracellular domain-His6-GST fusion (human, UniProt P08637 17-208); test: hexamer ELISA
# T6 construct: extracellular domain; also called FcγRIIIA-F158; CD16; not shown: glutathione S transferase (GST)
# [6] = molecular target: T3, human FcγRIIA-R131 α subunit …; test: ELISA, IgG complex, receptor coated
# [7] = molecular target: T7, human FcγRIIIA-F158 α subunit extracellular domain-His6-GST fusion (human, UniProt P08637 17-208); test: ELISA, IgG complex, receptor coated
# T7 construct: ECD-6His-GST fusion made in 293 cells; also called FcγRIIIA-Phe158; not shown: glutathione S transferase (GST)
# [8] = molecular target: T8, human FcγRIIIA-V158 α subunit extracellular domain-His6-GST fusion (human, UniProt P08637 17-208); test: ELISA, IgG monomer, receptor coated
# T8 construct: ECD-6His-GST fusion made in 293 cells; also called FcγRIIIA-Val158; not shown: glutathione S transferase (GST)
# T8 sequence (P08637 other isoform, or with tags, fused parts or gaps, form in doubt): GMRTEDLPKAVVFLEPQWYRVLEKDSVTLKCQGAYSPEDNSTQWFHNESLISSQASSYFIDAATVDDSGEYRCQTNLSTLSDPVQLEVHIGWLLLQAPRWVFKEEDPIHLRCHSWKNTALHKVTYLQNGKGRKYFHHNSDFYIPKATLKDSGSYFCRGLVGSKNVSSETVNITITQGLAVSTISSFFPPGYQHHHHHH
# T4 sequence (P12314 other isoform, or with tags, fused parts or gaps): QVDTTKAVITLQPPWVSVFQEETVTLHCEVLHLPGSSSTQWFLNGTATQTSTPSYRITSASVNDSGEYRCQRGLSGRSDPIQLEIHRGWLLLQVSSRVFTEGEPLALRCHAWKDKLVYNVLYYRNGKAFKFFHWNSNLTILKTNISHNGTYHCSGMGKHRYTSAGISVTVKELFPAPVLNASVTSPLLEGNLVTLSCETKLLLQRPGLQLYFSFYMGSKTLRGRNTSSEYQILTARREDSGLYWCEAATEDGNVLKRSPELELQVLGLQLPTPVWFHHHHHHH
# T6 sequence (P08637 other isoform, or with tags, fused parts or gaps): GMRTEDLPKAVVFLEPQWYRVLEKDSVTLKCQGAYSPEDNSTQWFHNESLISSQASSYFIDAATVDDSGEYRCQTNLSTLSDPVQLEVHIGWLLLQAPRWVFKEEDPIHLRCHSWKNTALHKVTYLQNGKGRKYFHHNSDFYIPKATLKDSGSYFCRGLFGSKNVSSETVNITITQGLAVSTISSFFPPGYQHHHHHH
# T7 sequence (P08637 other isoform, or with tags, fused parts or gaps, form in doubt): as the sequence (P08637 other isoform, or with tags, fused parts or gaps) above
Binder,ratio to native IgG1 [1],ratio to native IgG1 [2],ratio to native IgG1 [3],ratio to native IgG1 [4],ratio to native IgG1 [5],"ratio of binding, variant/native IgG1 (mean) [6]","ratio of binding, variant/native IgG1 (mean) [7]","ratio of binding, variant/native IgG1 (mean) [8]"
anti-IgE E27 IgG1 Thr307Ala (antibody) heavy: not shown light: DIQLTQSPSSLSASVGDRVTITCRASKPVDGEGDSYLNWYQQKPGKAPKLLIYAASYLESGVPSRFSGSGSGTDFTLTISSLQPEDFATYYCQQSHEDPYTFGQGTKVEIKRTVAAPSVFIFPPSDEQLKSGTASVVCLLNNFYPREAKVQWKVDNALQSGNSQESVTEQDSKDSTYSLSSTLTLSKADYEKHKVYACEVTHQGLSSPVTKSFNRGEC,0.99 ratio,1.81 ratio,1.07 ratio,1.27 ratio,1.09 ratio,,,
"anti-IgE E27 IgG1 variant E283(300)N (antibody, Fc variant of E27; also called IG2 228) heavy: not shown light: DIQLTQSPSSLSASVGDRVTITCRASKPVDGEGDSYLNWYQQKPGKAPKLLIYAASYLESGVPSRFSGSGSGTDFTLTISSLQPEDFATYYCQQSHEDPYTFGQGTKVEIKRTVAAPSVFIFPPSDEQLKSGTASVVCLLNNFYPREAKVQWKVDNALQSGNSQESVTEQDSKDSTYSLSSTLTLSKADYEKHKVYACEVTHQGLSSPVTKSFNRGEC",,,,,,1.18 ratio,0.94 ratio,0.63 ratio
anti-IgE E27 IgG1 Val305Ala (antibody) heavy: not shown light: DIQLTQSPSSLSASVGDRVTITCRASKPVDGEGDSYLNWYQQKPGKAPKLLIYAASYLESGVPSRFSGSGSGTDFTLTISSLQPEDFATYYCQQSHEDPYTFGQGTKVEIKRTVAAPSVFIFPPSDEQLKSGTASVVCLLNNFYPREAKVQWKVDNALQSGNSQESVTEQDSKDSTYSLSSTLTLSKADYEKHKVYACEVTHQGLSSPVTKSFNRGEC,1.04 ratio,1.46 ratio,1.12 ratio,1.23 ratio,0.84 ratio,,,
"anti-IgE E27 IgG1 variant E283(300)Q (antibody, Fc variant of E27; also called IG2 226) heavy: not shown light: DIQLTQSPSSLSASVGDRVTITCRASKPVDGEGDSYLNWYQQKPGKAPKLLIYAASYLESGVPSRFSGSGSGTDFTLTISSLQPEDFATYYCQQSHEDPYTFGQGTKVEIKRTVAAPSVFIFPPSDEQLKSGTASVVCLLNNFYPREAKVQWKVDNALQSGNSQESVTEQDSKDSTYSLSSTLTLSKADYEKHKVYACEVTHQGLSSPVTKSFNRGEC",,,,,,1.12 ratio,1.19 ratio,0.89 ratio
"anti-IgE E27 IgG1 variant E283(300)S (antibody, Fc variant of E27; also called IG2 227) heavy: not shown light: DIQLTQSPSSLSASVGDRVTITCRASKPVDGEGDSYLNWYQQKPGKAPKLLIYAASYLESGVPSRFSGSGSGTDFTLTISSLQPEDFATYYCQQSHEDPYTFGQGTKVEIKRTVAAPSVFIFPPSDEQLKSGTASVVCLLNNFYPREAKVQWKVDNALQSGNSQESVTEQDSKDSTYSLSSTLTLSKADYEKHKVYACEVTHQGLSSPVTKSFNRGEC",,,,,,1.03 ratio,0.85 ratio,0.83 ratio
anti-IgE E27 IgG1 Val303Ala (antibody) heavy: not shown light: DIQLTQSPSSLSASVGDRVTITCRASKPVDGEGDSYLNWYQQKPGKAPKLLIYAASYLESGVPSRFSGSGSGTDFTLTISSLQPEDFATYYCQQSHEDPYTFGQGTKVEIKRTVAAPSVFIFPPSDEQLKSGTASVVCLLNNFYPREAKVQWKVDNALQSGNSQESVTEQDSKDSTYSLSSTLTLSKADYEKHKVYACEVTHQGLSSPVTKSFNRGEC,0.91 ratio,1.26 ratio,0.86 ratio,0.65 ratio,0.33 ratio,,,
"anti-IgE E27 IgG1 variant E283(300)D (antibody, Fc variant of E27) heavy: not shown light: DIQLTQSPSSLSASVGDRVTITCRASKPVDGEGDSYLNWYQQKPGKAPKLLIYAASYLESGVPSRFSGSGSGTDFTLTISSLQPEDFATYYCQQSHEDPYTFGQGTKVEIKRTVAAPSVFIFPPSDEQLKSGTASVVCLLNNFYPREAKVQWKVDNALQSGNSQESVTEQDSKDSTYSLSSTLTLSKADYEKHKVYACEVTHQGLSSPVTKSFNRGEC",,,,,,1.14 ratio,0.95 ratio,0.67 ratio
"anti-IgE E27 IgG1 variant E283(300)A (antibody, Fc variant of E27; also called IG2 25) heavy: not shown light: DIQLTQSPSSLSASVGDRVTITCRASKPVDGEGDSYLNWYQQKPGKAPKLLIYAASYLESGVPSRFSGSGSGTDFTLTISSLQPEDFATYYCQQSHEDPYTFGQGTKVEIKRTVAAPSVFIFPPSDEQLKSGTASVVCLLNNFYPREAKVQWKVDNALQSGNSQESVTEQDSKDSTYSLSSTLTLSKADYEKHKVYACEVTHQGLSSPVTKSFNRGEC",,,,,,1.24 ratio,1.01 ratio,0.78 ratio

# Results, then the binder that gave them:
ratio to native IgG1 [1],ratio to native IgG1 [2],ratio to native IgG1 [3],ratio to native IgG1 [4],ratio to native IgG1 [5],"ratio of binding, variant/native IgG1 (mean) [6]","ratio of binding, variant/native IgG1 (mean) [7]","ratio of binding, variant/native IgG1 (mean) [8]",Binder
,,,,,0.87 ratio,0.66 ratio,0.68 ratio,"anti-IgE E27 IgG1 variant E294(311)A (antibody, Fc variant of E27; also called IG2 33) heavy: not shown light: DIQLTQSPSSLSASVGDRVTITCRASKPVDGEGDSYLNWYQQKPGKAPKLLIYAASYLESGVPSRFSGSGSGTDFTLTISSLQPEDFATYYCQQSHEDPYTFGQGTKVEIKRTVAAPSVFIFPPSDEQLKSGTASVVCLLNNFYPREAKVQWKVDNALQSGNSQESVTEQDSKDSTYSLSSTLTLSKADYEKHKVYACEVTHQGLSSPVTKSFNRGEC"
,,,,,0.98 ratio,0.92 ratio,1.1 ratio,"anti-IgE E27 IgG1 variant E380(405)A/L309(328)A (antibody, Fc variant of E27; also called IG2 271; Glu380Ala/Leu309Ala) heavy: not shown light: DIQLTQSPSSLSASVGDRVTITCRASKPVDGEGDSYLNWYQQKPGKAPKLLIYAASYLESGVPSRFSGSGSGTDFTLTISSLQPEDFATYYCQQSHEDPYTFGQGTKVEIKRTVAAPSVFIFPPSDEQLKSGTASVVCLLNNFYPREAKVQWKVDNALQSGNSQESVTEQDSKDSTYSLSSTLTLSKADYEKHKVYACEVTHQGLSSPVTKSFNRGEC"
,,,,,0.37 ratio,0.14 ratio,0.26 ratio,"anti-IgE E27 IgG1 variant E294(311)D (antibody, Fc variant of E27; also called IG2 174) heavy: not shown light: DIQLTQSPSSLSASVGDRVTITCRASKPVDGEGDSYLNWYQQKPGKAPKLLIYAASYLESGVPSRFSGSGSGTDFTLTISSLQPEDFATYYCQQSHEDPYTFGQGTKVEIKRTVAAPSVFIFPPSDEQLKSGTASVVCLLNNFYPREAKVQWKVDNALQSGNSQESVTEQDSKDSTYSLSSTLTLSKADYEKHKVYACEVTHQGLSSPVTKSFNRGEC"
,,,,,1.15 ratio,0.68 ratio,0.88 ratio,"anti-IgE E27 IgG1 variant K334(353)R (antibody, Fc variant of E27; also called Lys334Arg) heavy: not shown light: DIQLTQSPSSLSASVGDRVTITCRASKPVDGEGDSYLNWYQQKPGKAPKLLIYAASYLESGVPSRFSGSGSGTDFTLTISSLQPEDFATYYCQQSHEDPYTFGQGTKVEIKRTVAAPSVFIFPPSDEQLKSGTASVVCLLNNFYPREAKVQWKVDNALQSGNSQESVTEQDSKDSTYSLSSTLTLSKADYEKHKVYACEVTHQGLSSPVTKSFNRGEC"
,,,,,1.01 ratio,0.84 ratio,0.79 ratio,"anti-IgE E27 IgG1 variant E294(311)Q (antibody, Fc variant of E27; also called IG2 173) heavy: not shown light: DIQLTQSPSSLSASVGDRVTITCRASKPVDGEGDSYLNWYQQKPGKAPKLLIYAASYLESGVPSRFSGSGSGTDFTLTISSLQPEDFATYYCQQSHEDPYTFGQGTKVEIKRTVAAPSVFIFPPSDEQLKSGTASVVCLLNNFYPREAKVQWKVDNALQSGNSQESVTEQDSKDSTYSLSSTLTLSKADYEKHKVYACEVTHQGLSSPVTKSFNRGEC"
,,,,,0.87 ratio,1.05 ratio,1.23 ratio,"anti-IgE E27 IgG1 variant E333(352)G (antibody, Fc variant of E27; also called IG2 178) heavy: not shown light: DIQLTQSPSSLSASVGDRVTITCRASKPVDGEGDSYLNWYQQKPGKAPKLLIYAASYLESGVPSRFSGSGSGTDFTLTISSLQPEDFATYYCQQSHEDPYTFGQGTKVEIKRTVAAPSVFIFPPSDEQLKSGTASVVCLLNNFYPREAKVQWKVDNALQSGNSQESVTEQDSKDSTYSLSSTLTLSKADYEKHKVYACEVTHQGLSSPVTKSFNRGEC"
